Assay results from publication PMC4775417 (Structure (London, England : 1993), 2016).

Molecular target: Met1-linked tri-ubiquitin chain (UniProt P0CG48 1-76; P0CG48 1-76; P0CG48 1-76)
Assay: SPR

Met1-linked tri-ubiquitin chain, sequence (P0CG48 1-228, one chain of several): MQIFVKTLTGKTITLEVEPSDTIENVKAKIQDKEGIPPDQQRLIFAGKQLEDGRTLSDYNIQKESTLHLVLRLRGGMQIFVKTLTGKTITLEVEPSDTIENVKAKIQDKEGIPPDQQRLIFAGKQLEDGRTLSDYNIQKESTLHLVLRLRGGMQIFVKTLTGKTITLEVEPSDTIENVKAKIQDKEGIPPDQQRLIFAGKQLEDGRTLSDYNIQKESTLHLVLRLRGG

binding result: binds
B1: His-tagged AIRAPL tUIM (residues 188-240), wild type (domain or fragment, mouse, UniProt Q91X58 188-240, looked up)
chain: PVIALQNGLSEDEALQRALELSLAEAKPQVLSSQEEDDLALAQALSASEAEYQ
